In test [1] the target is Bam35 P19t (P19 without its predicted transmembrane domain), bait pBN_19t (Bacillus virus Bam35). As to the kind of experiment: two-hybrid.
Test [2] deals with Bam35 P22 (special vertex, suggested), bait pBN_22 (Bacillus virus Bam35). Put plainly: two-hybrid; pairwise Y2H: Bam35 ORF baits (pBC or pBN) against full-length HER1410 ORF preys (pPC or pPN); HIS3 reporter, -LWH with 0, 0.025, 0.1, 3, 10, 25, 50 and 100 mM 3AT; positive when growth was higher than in the self-activation controls with the empty vectors.
The target in test [3] is Bam35 P26 (transglycosylase and integral membrane scaffolding, suggested), bait pBN_26 (Bacillus virus Bam35). Put plainly: two-hybrid.

As to “B. thuringiensis HER1410 OmpR, full length, prey pPC_ompR(22050) (natural protein)”, the other in test [1] was 100 mM.
Consider “B. thuringiensis HER1410 YadS, full length, prey pPC_yadS(28175) (natural protein)”, for which the Max. 3AT (mM) (B35ORF BtORF) in test [2] was 50 mM.
“B. thuringiensis HER1410 protein of locus 16200, full length, prey pPC_(16200) (natural protein)” displayed a Max. 3AT (mM) (B35ORF BtORF) in test [3] of 3 mM.

These data come from article PMC8539640.
